Consider 3 molecules from PMC9811624 (The EMBO Journal, 2022).

In assay [1] the target is MBP-OsCBL8 (Oryza sativa (rice)) (UniProt Q3HRN9). Description: SPR. For orientation: In SPR one partner is held on a chip, and binding of the other changes the refractive index at the surface.
Assay [2] deals with MBP-OsCRT3 (Oryza sativa (rice)). Description: SPR.
Assay [3] shares this target. Nature of the assay: SPR. This is another data set of the same source.
Assay [4] addresses MBP-OsCBL8 (Oryza sativa (rice)) (UniProt Q3HRN9). Description: SPR. The source holds these as a separate data set.
The target in a further assay is T1, GST-OsCIPK7 (Oryza sativa (rice), UniProt Q75GK4 1-447).
T1 sequence: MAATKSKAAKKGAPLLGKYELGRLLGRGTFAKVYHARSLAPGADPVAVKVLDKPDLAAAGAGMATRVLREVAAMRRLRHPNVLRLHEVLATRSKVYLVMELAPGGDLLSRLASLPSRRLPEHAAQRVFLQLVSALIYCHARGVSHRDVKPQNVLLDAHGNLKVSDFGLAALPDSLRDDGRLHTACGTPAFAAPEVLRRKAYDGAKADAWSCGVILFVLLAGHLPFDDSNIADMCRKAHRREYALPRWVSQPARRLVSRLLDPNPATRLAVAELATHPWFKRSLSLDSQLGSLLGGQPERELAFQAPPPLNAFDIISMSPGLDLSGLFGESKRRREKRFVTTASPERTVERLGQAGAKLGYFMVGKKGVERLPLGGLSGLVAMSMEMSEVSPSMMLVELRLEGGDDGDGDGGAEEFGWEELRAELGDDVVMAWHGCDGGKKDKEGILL
Description: pull-down.

Read-outs that look alike come from different tables or passages of the source.

In general, Kd refers to the constant that tells how readily two partners part at equilibrium. Read a high Kd as a looser complex. As usually defined, the koff is the first-order rate constant of dissociation. The low end stands for slow dissociation, the high end for fast dissociation. As a reminder, the kon is a measure of how fast the partners come together. A lower kon goes with slower complex formation.

As for GST-OsCIPK7-C (domain or fragment), the equilibrium dissociation constant (Kd) in assay [1] was 390 nM; in assay [2] it was 6490 nM; in assay [3], 920 nM; in assay [4], 340 nM. Besides, the off-rate constant (koff) in assay [2] turned out to be 0.00157 s⁻¹; in assay [3], 0.00077 s⁻¹. In addition, the kon in assay [2] was 256 M⁻¹ s⁻¹; in assay [3] it was 684 M⁻¹ s⁻¹.

B1: MBP-OsCBL8 (natural protein)
chain: MGCVSSKQFKRAAQHEDPAILAKETTFSVSEVEALFELFKKISHSIFRDGLIHKEEFQLALFRNSNKKNLFANRIFDLFDLKRNGVIDFGEFVRSLSIFHPETPLGDKIAFAFRLYDLRGTGCIEREELHEMVLALLNESDLFLSEEAVEQIVDQTFKQADLNDDGKIDPDEWKTFASKNPALLKNMTLPYLKDITMVFPSFILNSEVCEEEL
In the case of B1, the binding result with GST-OsCIPK7 was “binds”.

B2: MBP-OsCBL7 (natural protein)
chain: MGCISSKQFKRAAEHEDPAILAKETTFSVSEVEALYELFKKISHSIFKDGLIHKEEFQLALFRNSNKKNLFADRIFDLFDLKRNGVIDFGEFVRSLNIFHPETPLAEKIAFAFRLYDLRGTGYIEREELYEMVLAILNESDLLLSDDAVEQIVDQTFKQADLNSDGKIDPDEWKAFASKNPALLKNMTLPYLKDITMAFPSFVLNSGVDDEEL
As to B2, the binding result in the assay with GST-OsCIPK7 is on record as “binds”.
